We go through one molecule from patent CN111732655A (INST MILITARY MEDICINE ACADEMY MILITARY SCIENCES PLA, dated 2020).

Experiment [1] addresses 全长SARS-CoV-2 S蛋白 (GenBank ID: QHD43416.1)，展示于HIV假病毒 (SARS-CoV-2, UniProt P0DTC2 14-1273). Description: cell-based or functional assay.
The target of experiment [2] is SARS-CoV-2真病毒的S蛋白 (SARS-CoV-2, UniProt P0DTC2 14-1273). Description: cell-based or functional assay.

Where “and” joins values, the source holds several entries; their conditions need not be identical. Equal values may be shown once.

B1: 单克隆抗体4B7 (抗SARS-CoV-2全人源单克隆抗体) (antibody, V domains shown)
VH: EVQLVESGGGLVQPGGSLRLSCAASGFPFSSYAMSWVRQAPGKGLEWVSAITGSGGSTYYADSVKGRFTISRDNSKNTLYLHMNSLRAEDTAVYYCAKDDYGDYVLGAFDIWGQGTTVTVSS
VL: QSALTQPASVSGSPGQSITISCTGTSSDVGTYKFVSWYQQHPGKAPKLMIYEGSKRPSGVSNRFSGSKSGNTASLTISGLQAEDEADYYCCSYAGSSTLVFGGGTKLTVL
As for B1, in experiment [1], the “假病毒模型上EC50 (luciferase, ACE2-293T细胞)” value is 0.052 ug/ml and 0.35 nM. Moreover, the “病毒感染的细胞模型上EC50 (Vero E6细胞, 结晶紫染色细胞活率)” value in experiment [2] was 0.38 ug/ml and 2.5 nM.
